Assay results: patent US8105799B2, “Methods of screening compounds inhibiting signal transduction through inflammatory cytokines” (Chugai Seiyaku Kabushiki Kaisha, priority 1998, dated 2012)

Legend:
[1] = tested on: peritoneal macrophages; assay: IL-6 production by IL-1α-stimulated peritoneal macrophages expressing TAK1-DN; type: cell-based; details: IL-1α 10 ng/ml, 24 hours; TAK1-DN Tgm-derived macrophages compared with wild-type mouse-derived macrophages; ELISA; FIG. 5
Procedure: (§1) Specifically, 10 ml of ice-cold PBS solution containing 0.36% sodium citrate was injected into the peritoneal cavity of a TAK1-DN-expressing transgenic mouse (TAK1-DN Tgm) or a C57BL/6 mouse (wild-type mouse) of the same weeks of age. The mouse was given a massage for 30 seconds, and then the solution was recovered from the mouse. The solution recovered was centrifuged, and the precipitated cells were resuspended in RPMI1640 (GIBCO-BRL) containing 10% FBS (GIBCO-BRL). The cells were plated in wells at a cell density of 5×10^4/well. The cells were cultured at 37° C. for 2 hours, and floating cells were removed by washing with media. Cells adsorbed on the culture plate were used as peritoneal macrophages.
(§2) LPS, at a final concentration of 10 μg/ml, or IL-1α (Genzyme), at a final concentration of 10 ng/ml, was added to the above-prepared peritoneal macrophages, and the cells were further cultured for 24 hours. The culture supernatant was recovered. Then, the amounts of IL-1β in the culture supernatant of LPS-stimulated macrophages and IL-6 in the culture supernatant of IL-1α-stimulated macrophages were assayed by ELISA kits (Genzyme).

[2] = tested on: IκBα degradation by proteasome (NFκB activation); assay: IκBα degradation in TAK1-DN expressing peritoneal macrophages stimulated by LPS and IL-1α (Western blot); type: cell-based, mouse; details: 30 and 60 minutes, TAK1-DN Tgm-derived macrophages, FIG. 6
Procedure: The macrophages derived from wild-type mice and from TAK1-DN Tgm, which were prepared as described above, were stimulated by LPS or IL-1, and the time course of degradation of IκBα by proteasome was monitored (0, 30, and 60 minutes). Specifically, the peritoneal macrophages were cultured in wells of a 96-well plate at a cell density of 1×10^6/well. LPS (1 μg/ml) or IL-1α (10 ng/ml) was added to the culture in the presence or absence of proteasome inhibitor MG132 (40 μM). The cells were harvested after 30 or 60 minutes.
The cells were washed with PBS (−), and then a lysis buffer was added thereto for the preparation of cell lysate. An aliquot of each lysate corresponding to about 2×10^5 cells was subjected to gel electrophoresis by 9% SDS-PAGE. The fractionated proteins were blotted onto a nitrocellulose membrane and then incubated with anti-IκBα antibody (SantaCruz) as a primary antibody for 1.5 hours. After wash, horseradish peroxidase-conjugated goat anti-rabbit antibody was used as a secondary antibody. After the reaction of the secondary antibody, the reaction product was detected by using ECL (Amersham).

[3] = target: T1, TAB1 (Homo sapiens, UniProt Q15750); assay: Animal cell two-hybrid assay in CHO cells (luciferase reporter); type: cell-based, hamster; details: pM-TAK1DN with pVP16-C68 (TAB1C68), 72 hours, FIG. 7
T1 construct: expressed in transfected cells; host or cells: CHO cells transfected with pVP16-C68
T1 sequence (Q15750 437-504): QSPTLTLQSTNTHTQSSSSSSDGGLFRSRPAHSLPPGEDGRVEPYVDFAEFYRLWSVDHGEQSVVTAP
From the text: The animal cell two-hybrid system (Dang et al., (1991) Mol. Cell. Biol. 11, 954-962) using TAB1 peptide and TAK1 peptide was used to analyze whether or not a peptide (TAK1-DN) from Glu at amino acid 77 to Gln at amino acid 303 in the TAK1 peptide of SEQ ID NO: 2 is capable of inhibiting the binding between TAK1 peptide and TAB1 peptide and further capable of inhibiting TAK1 peptide activation in animal cells.
First, each of genes encoding full-length TAK1 and TAK1-DN was ligated with the gene encoding GAL4 DNA-binding domain (GAL4-BD) to prepare an expression vector. The gene encoding full-length TAK1 was obtained from yeast two-hybrid expression plasmid pBTMHu11F (Shibuya H. et al., (1996) 272, 1179-1182) by digesting it with restriction enzymes EcoRI and PstI. Subsequently, the gene was ligated between EcoRI and PstI sites of an expression vector pM (CLONTECH) containing the GAL4-BD gene to obtain an animal cell two-hybrid expression plasmid pM-TAK1. […]
The culture further continued for 72 hours, and then luciferase activities in each cell extract were assayed by using Dual-Luciferase™ Reporter Assay System (Promega). […] The efficiency of gene introduction was normalized by using measured values for the activity of Renilla luciferase derived from the introduced pRL-SV40.

[4] = tested on: peritoneal macrophages; assay: Cytokine production by LPS-stimulated peritoneal macrophages expressing TAK1-DN; type: cell-based; details: LPS 10 μg/ml, 24 hours, TAK1-DN Tgm-derived macrophages compared with wild-type mouse-derived macrophages, FIG. 4
Procedure: as §1, §2

B1: TAK1-DN: TAB1-binding region of TAK1, amino acid 77 Glu to amino acid 303 Gln of SEQ ID NO: 2; dominant negative inhibitor (protein, listed as Homo sapiens)
chain: ELRQLSRVNHPNIVKLYGACLNPVCLVMEYAEGGSLYNVLHGAEPLPYYTAAHAMSWCLQCSQGVAYLHSMQPKALIHRDLKPPNLLLVAGGTVLKICDFGTACDIQTHMTNNKGSAAWMAPEVFEGSNYSEKCDVFSWGIILWEVITRRKPFDEIGGPAFRIMWAVHNGTRPPLIKNLPKPIESLMTRCWSKDPSQRPSMEEIVKIMTHLMRYFPGADEPLQYPCQ
- induction of IL-6 production by IL-1 stimulation [1]: significantly inhibited
- degradation of IκBα ([2]; IL-1α 10 ng/ml): no remarkable degradation of IκBα
- degradation of IκBα ([2]; LPS 1 μg/ml): no remarkable degradation of IκBα
- luciferase activity (binding to TAB1) [3]: capable of binding to TAB1
- induction of production of IL-1β ([4]; ELISA): significantly inhibited
- induction of production of IL-6 [4]: significantly inhibited
- induction of production of TNF [4]: significantly inhibited
